This is an account of results in patent US6887468B1 (Board of Regents, The University of Texas System, priority 1999, dated 2005).

Data set [1] deals with progressive disease in cancer patients. The settings on record: clinical trials; cited from earlier work.
A further data set relates to VEGFR2 (KDR/Fc). In words: Co-precipitation assay, VEGF with VEGFR2/Fc in solution. Type of data set: binding. Particulars: F(ab′)2. Here is the method:
200 ng of soluble forms of VEGFR1 (Flt-1/Fc) or VEGFR2 (KDR/Fc, R&D Systems, Minneapolis, Minn.) were added for a total volume of 50 μl and incubated for 2 hrs. The receptor/Fc constructs were precipitated using Protein A-sepbarose beads and the resulting precipitate was washed 4 times with binding buffer.
Reducing sample buffer was added to the pellet and supernatant of each reaction and both were analyzed by 12% SDS-PAGE and transferred to PVDF membranes. […] The soluble receptor/Fc constructs were also detected by using peroxidase-conjugated goat anti-human Fc (Kirkegaard & Perry Laboratories, Inc.)
The receptor/Fc constructs were precipitated by incubation with Protein A sepharose beads. The precipitate was washed and resuspended in reducing sample buffer and separated by 12% SDS-PAGE and transferred to PVDF.

The conditions of data set [2]: dose-related; cited from earlier work.
The nature of data set [3]: Blood clearance of radioiodinated 2C3-GUS after intravenous injection. Type of data set: in vivo, mice. The settings on record: 125I-labelled. From the text: 2C3-GUS was radioiodinated with ^125I to a specific activity of 5×10^6 cpm/μg.
Data set [4] concerns human NCI-H358 NSCLC tumors. Put plainly: Localization of 2C3-GUS after i.v. injection into tumor-bearing SCID mice. The data set is classed as in vivo.

For `NC(=O)c1nnn(Cc2cc(Cl)c(C(=O)c3ccc(Cl)cc3)c(Cl)c2)c1N` [CAI, carboxyamidotriazole], the “Disease stabilization, share of cancer patients having progressive disease before treatment” value in data set [1] is 49%. For 2C3 F(ab′)2: F(ab′)2 fragment of 2C3, the “Blocking of VEGF binding to VEGFR2/Fc in solution” value in the data set on VEGFR2 (KDR/Fc) is given as “blocked the binding of VEGF to VEGFR2/Fc”.

“recombinant, humanized form of Genentech's anti-VEGF antibody: recombinant, humanized form of Genentech's anti-VEGF antibody evaluated in monkeys (Ryan et al., 1999)”: in data set [2], the “Preclinical safety finding in monkeys” value was “physeal dysplasia”. As to 2C3-GUS, in data set [3], the “t½ α” value is listed as “about 6 hours” and the “t½ β” value is on record as “about 25 hours”. The “Localization after i.v. injection” value in data set [4] (immunohistochemistry on frozen tumor sections) is “specifically localized to tumor vasculature and surrounding tumor stroma”. For the same compound, the “Staining of normal tissues” value in data set [4] (mouse, in vivo) is “Normal tissues were unstained”.
